Where two headings read alike, the source gives them in different places. Each block holds one molecule with its values, some of them ahead of it.
Assays:
Experiment in all cases: ITC
[1] = molecular target: mouse CSL core domain (residues 53-474), wild type (mouse) (UniProt P31266)
[2] = molecular target: mouse CSL core domain (residues 53-474), wild type (mouse) (UniProt P31266); remark: listed apart in the source
[3] = molecular target: mouse CSL core domain (residues 53-474), wild type (mouse) (UniProt P31266); remark: listed apart in the source
[4] = molecular target: mouse CSL core domain (53-474) mutant V263R (mouse) (UniProt P31266)
mouse CSL core domain (53-474) mutant V263R (mouse), sequence (P31266 53-474 V263R): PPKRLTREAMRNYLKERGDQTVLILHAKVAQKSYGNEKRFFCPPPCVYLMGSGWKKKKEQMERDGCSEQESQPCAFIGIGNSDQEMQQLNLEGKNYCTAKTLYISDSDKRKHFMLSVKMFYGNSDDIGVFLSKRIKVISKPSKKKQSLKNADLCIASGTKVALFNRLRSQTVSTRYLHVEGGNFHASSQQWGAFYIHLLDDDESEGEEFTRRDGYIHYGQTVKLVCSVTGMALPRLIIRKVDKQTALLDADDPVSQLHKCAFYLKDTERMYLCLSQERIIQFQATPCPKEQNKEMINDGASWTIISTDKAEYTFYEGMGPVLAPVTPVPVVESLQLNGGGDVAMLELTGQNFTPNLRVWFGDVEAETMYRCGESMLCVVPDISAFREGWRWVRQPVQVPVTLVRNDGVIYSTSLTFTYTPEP

[5] = molecular target: BTD of mouse CSL (residues 203-393) (mouse) (UniProt P31266)
BTD of mouse CSL (residues 203-393) (mouse), sequence (P31266 203-393): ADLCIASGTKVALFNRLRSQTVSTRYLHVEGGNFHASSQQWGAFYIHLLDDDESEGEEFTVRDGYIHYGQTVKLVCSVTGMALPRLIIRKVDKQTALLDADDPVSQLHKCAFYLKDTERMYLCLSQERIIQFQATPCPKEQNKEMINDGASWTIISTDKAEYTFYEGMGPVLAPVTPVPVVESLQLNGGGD

[6] = molecular target: mouse CSL core domain (53-474) mutant Q333R (mouse) (UniProt P31266)
mouse CSL core domain (53-474) mutant Q333R (mouse), sequence (P31266 53-474 Q333R): as the sequence (P31266 53-474 V263R) above, with R211V, Q281R counted along it

[7] = molecular target: mouse CSL core domain (53-474) mutant A284R (mouse) (UniProt P31266)
mouse CSL core domain (53-474) mutant A284R (mouse), sequence (P31266 53-474 A284R): as the sequence (P31266 53-474 V263R) above, with R211V, A232R counted along it

[8] = molecular target: mouse CSL core domain (53-474) mutant F261R (mouse) (UniProt P31266)
mouse CSL core domain (53-474) mutant F261R (mouse), sequence (P31266 53-474 F261R): as the sequence (P31266 53-474 V263R) above, with F209R, R211V counted along it

[9] = molecular target: mouse CSL core domain (residues 53-474), wild type (mouse, UniProt P31266 53-474)
mouse CSL core domain (residues 53-474), wild type, sequence (P31266 53-474): as the sequence (P31266 53-474 V263R) above, with R211V counted along it

[10] = molecular target: mouse CSL core domain (residues 53-474), wild type (mouse) (UniProt P31266); remark: listed apart in the source

mouse CSL core domain (residues 53-474), wild type (mouse), sequence (P31266 53-474): as the sequence (P31266 53-474 V263R) above, with R211V counted along it

Molecule: mouse KyoT2 (residues 182-210) (peptide)
Ka [1]: 7.1e+07 M⁻¹
Kd [1]: 15 nM
dH [1]: -16 kcal/mol

Molecule: mouse KyoT2 (residues 184-200) (peptide)
Ka [1]: 3.1e+07 M⁻¹
dH [1]: -13.1 kcal/mol

Molecule: mouse KyoT2 (residues 184-210) (peptide)
Ka [2]: 9.4e+07 M⁻¹
Kd [2]: 11 nM
dH [2]: -14.6 kcal/mol
Ka [3]: 1.1e+08 M⁻¹
Kd [3]: 11 nM
dH [3]: -11 kcal/mol
Ka [4]: 3.1e+07 M⁻¹
Kd [4]: 19 nM
dH [4]: -12.9 kcal/mol
Kd [5]: 26 nM
dH [5]: -13.6 kcal/mol
Ka [6]: 2e+07 M⁻¹
Kd [6]: 51 nM
dH [6]: -11.7 kcal/mol
Kd [7]: 7200 nM
dH [7]: -10.5 kcal/mol
Ka [1]: 8.5e+07 M⁻¹
Kd [1]: 12 nM
dH [1]: -15.5 kcal/mol
stoichiometry N [1]: 1
Ka [8]: 340000 M⁻¹
Kd [8]: 6300 nM
dH [8]: -5.6 kcal/mol

B3: KyoT2 peptide APVWWPMK (residues 188-195) (peptide)
peptide: APVWWPMK
binding result [9]: binds

Other lines, results leading:

Ka [1]: 1.2e+08 M⁻¹
Kd [1]: 12 nM
dH [1]: -16 kcal/mol
Molecule: KyoT2 KD196AA (in the construct 184-210) (peptide)

Kd [1]: 69 nM
dH [1]: -13.7 kcal/mol
Molecule: KyoT2 V186A (in the construct 184-210) (peptide)

Ka [1]: 2e+07 M⁻¹
Kd [1]: 22 nM
dH [1]: -7.5 kcal/mol
Molecule: RAM domain of Notch1, mutant Q1763A (from UniProt P46531 19-2555) (domain or fragment)

Ka [1]: 6.8e+07 M⁻¹
Kd [1]: 15 nM
dH [1]: -18.2 kcal/mol
Molecule: RAM domain of Notch1, wild type (from UniProt P46531 19-2555) (domain or fragment)

fold enhancement in binding against the peptide APVWWPMK [9]: ~40 fold
B1: KyoT2 peptide KAPVWWPMKD (residues 187-196) (peptide)
peptide: KAPVWWPMKD

Kd [10]: 8000 nM
B2: KyoT2 tetrapeptide VWWP (residues 190-193) (peptide)
peptide: VWWP
